Measured values: the RNAGym collection of RNA variant scans (doi:10.1073/pnas.2313332121)
This sample holds only a part of the variants without activity.

B1: TPR 5TU (parent)
chain: GGAUCUUCUCGAUCUAACAAAAAAGACAAAUCUGCCACAAAGCUUGAGAGCAUCUUCGGAUGCAGAGGCGGCAGCCUUCGGUGGCGCGAUAGCGCCAACGUUCUCAACUAUGACACGCAAAACGCGUGCUCCGUUGAAUGGAGUUUAUCAUG

Variants of: B1
Assay: polymerase ribozyme fitness, log enrichment relative to wild type (log ratio); higher = more active; in vitro selection for triplet polymerase activity
Method in brief: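 Mutant libraries were PCR-built and transcribed for each subunit of a heterodimeric triplet polymerase ribozyme and selected for one round in triplicate at −7 °C, frozen, before gel excision of extended constructs and streptavidin-bead capture. Input and output libraries were Illumina-sequenced, keeping genotypes with ≥10 input reads and ≥1 read per output. Fitness is a logarithmic ratio of genotype to wild-type enrichment, in base 2, using inverse-variance-weighted replicate averages.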

Variant	polymerase ribozyme fitness (log ratio)
A21G A49G C63G C96U A98U C125G	-0.663
A21C U56G G59A C72U A122U	-0.846
A20U G81A A89G C93U C129U	-3.56
A21G A22U G67A G86C C96U G117A	≤ -4.2
A21U C38A C57U U102G A119U	≤ -4.2
A21G U144A	0.357
A20C C36U A47C	-1.91
A20G U56A	-0.723
A20G G59C G94C	-0.672
A21U C85U G124A G126A G136A	-3.04
A22C A29U A41G G50C U77A C85U C93G G141C	≤ -4.2
A21U A60G	0.987
A20U C54A A66U U77C C116G C125A U148C	≤ -4.2
A21U A29U A66U C76A C93G	≤ -4.2
A21U A60C C87A A98G G100C	≤ -4.2
A21U A23C C38A C99G A142C	≤ -4.2
A21C U53G C87A C95A C149G	≤ -4.2
A21G G83C U90C U146A A150C	≤ -4.2
A21U A23U C54U G58A G92U	≤ -4.2
A21C A29U C43A U55A G83A A107C	≤ -4.2
A21G G42A A49C A66U U82C C87U U135G U145A U148A	≤ -4.2

Variant	polymerase ribozyme fitness (log ratio)
A20C G48U G59A A119U U135A U146C	-2.07
A21U G80A	-0.249
A21U U56A G140A G141A	-4.17
A21C U56A	-0.39
A21C A26C C27U U44G A52G G58C U90A G92A G100U	≤ -4.2
A21C A49C A52C U53G G84U C95U G141A	≤ -4.2
A20G G136A	0.27
A20C C27U C87U G92A U101A	-1.49
A21G C116G	1.2
A20C G94U G152C	-2.76
A21U G48C G83A C118G U145A	-2.76
A20U G48C C57G G128A	≤ -4.2
A21C C38U G46C U53G G88U A122U G126A U135C C149G	≤ -4.2
A21G C93A C103U	-1.75
A22C C35G U44A A60G C76A C95U G128A A150C U151G	≤ -4.2
A21U A30U C38G C85G G112A G124A	≤ -4.2
A22C A47C A73U G83U G84A C95U C103G C116U G140C	≤ -4.2
A21U A64C U145G	≤ -4.2
A21U C51U G126U	0.375
A21C U90A G94C	≤ -4.2
A20U A26U A29U G46A A49C A106U	≤ -4.2

Variant	polymerase ribozyme fitness (log ratio)
A20U A40C G94A A115U A119C	-3.89
A20U A21U A37C C96A A121G	-1.8
A21U U44A C93G G94C	≤ -4.2
A22C C32G C43G G92A C114U C118G U139A	≤ -4.2
A21U A30G	-3.62
A21U A29C G92A C99U G117U U130G	-3.76
A21G	0.531
A21U	0.554
A21C	0.199
A21C C75G C96G C131G	-4.13
A20C U53A G84A	-1.69
A21U A23U A29C C35G G48A	≤ -4.2
A21C C43A	≤ -4.2
A20U A28U A64C C79U C93A C114U	≤ -4.2
A21C G81C G88A A107G	≤ -4.2
A20U C85G	-3.35
A21G G25C G34A A49G C72U G92C G112U	≤ -4.2
A21C G50A A122U	-1.39
A20U A22U A52C G67A U127A	≤ -4.2
A20U U33C G71A U104A A106G A107G A137C	≤ -4.2
A20U A21G C51U G133C	≤ -4.2

Variant	polymerase ribozyme fitness (log ratio)
A21C C43A G50C G74C C76A C87A A91G A119G	≤ -4.2
A21U A24U A52G G71U U90C C123U G126U U144A A147C U151A	≤ -4.2
A22C A29C G68A G81A C85A C105G A142U	≤ -4.2
A21G G50U G92U A147C	-0.875
A21C A91G C96U	-3.34
A20U G65C C85U A106U	≤ -4.2
A21G C27G U33C G62U G81U C96U C105A A113U A122U	≤ -4.2
A20C C32G G59C C85U C95G A97G G140A U151C	≤ -4.2
A21U C32A G58C	≤ -4.2
A20U A40C G80U G83A C99U G133U A142G U145C	≤ -4.2
A21G C132G	-3.9
A20U G50A C85U	-3.83
A21C C63U A73C C95A A98U	-3.29
A20C C79A U82C A107C	≤ -4.2
A20U U55A	-2.07
A21U A39C G58A G94C C125G U148G	≤ -4.2
A21C C72G G124C	≤ -4.2
A21C A49U C54U C85G G117A G124U	-3.06
A20C C87A	≤ -4.2
A20C C87U	-1.36
A21C C32G C43U C57A G71U C85A G88C A91C A147U	≤ -4.2
